Holding throughout (experiment): cell-based or functional assay
For assay [1], the target named is T1, IL-18 receptor (IL-18Rα and IL-18Rβ) on HEK-Blue IL-18 cells (UniProt Q13478 19-541; O95256 20-599, limits assumed).
T1 sequence (looked up) 1: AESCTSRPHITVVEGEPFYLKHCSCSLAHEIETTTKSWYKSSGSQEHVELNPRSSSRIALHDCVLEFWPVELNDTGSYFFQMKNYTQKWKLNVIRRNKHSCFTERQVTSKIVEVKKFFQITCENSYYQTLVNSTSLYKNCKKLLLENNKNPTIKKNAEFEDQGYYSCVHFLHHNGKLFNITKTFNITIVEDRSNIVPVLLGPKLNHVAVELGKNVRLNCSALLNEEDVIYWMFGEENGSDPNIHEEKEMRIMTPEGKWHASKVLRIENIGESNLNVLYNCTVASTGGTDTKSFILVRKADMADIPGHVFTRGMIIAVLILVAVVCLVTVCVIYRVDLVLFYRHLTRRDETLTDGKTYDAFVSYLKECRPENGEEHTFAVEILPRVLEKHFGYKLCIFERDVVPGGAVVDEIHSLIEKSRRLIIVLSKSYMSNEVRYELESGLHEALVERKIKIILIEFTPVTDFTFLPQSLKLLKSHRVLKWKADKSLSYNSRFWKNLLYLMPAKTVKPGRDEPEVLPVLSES
T1 sequence (looked up) 2: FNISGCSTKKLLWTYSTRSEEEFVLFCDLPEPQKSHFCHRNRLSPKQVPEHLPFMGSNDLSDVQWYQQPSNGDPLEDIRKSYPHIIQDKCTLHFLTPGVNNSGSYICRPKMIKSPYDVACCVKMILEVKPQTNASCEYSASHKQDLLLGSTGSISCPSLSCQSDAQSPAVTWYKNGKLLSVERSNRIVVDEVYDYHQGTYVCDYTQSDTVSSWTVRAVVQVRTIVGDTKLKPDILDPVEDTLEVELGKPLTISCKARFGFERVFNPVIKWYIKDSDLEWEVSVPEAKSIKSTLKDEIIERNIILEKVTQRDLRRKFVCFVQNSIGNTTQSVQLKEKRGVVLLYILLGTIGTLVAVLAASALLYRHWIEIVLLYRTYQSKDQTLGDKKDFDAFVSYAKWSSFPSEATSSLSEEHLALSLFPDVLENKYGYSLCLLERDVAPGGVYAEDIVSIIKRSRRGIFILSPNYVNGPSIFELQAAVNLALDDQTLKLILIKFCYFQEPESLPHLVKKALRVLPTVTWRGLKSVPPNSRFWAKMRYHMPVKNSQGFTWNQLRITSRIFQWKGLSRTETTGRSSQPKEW

In assay [2] the target is T1, IL-18 receptor (IL-18Rα and IL-18Rβ) on …. The source holds these as a separate data set.
The target in assay [3] is ALK1 / BMPRII receptor pair (BMPR Type I receptor ALK1 and BMPR Type II receptor BMPRII) on cells (UniProt P37023 22-503; Q13873 27-1038, limits assumed).
The target of assay [4] is T1, IL-18 receptor (IL-18Rα and IL-18Rβ) on …. This is another data set of the same source.

Numbering of substitutions follows the chain as printed. Like-named read-outs stand apart in the source and are kept apart here.

ALK1 / BMPRII receptor pair (BMPR Type I receptor ALK1 and BMPR Type II receptor BMPRII) on cells, sequence (P37023 22-503 limits assumed, chain 1 of 2): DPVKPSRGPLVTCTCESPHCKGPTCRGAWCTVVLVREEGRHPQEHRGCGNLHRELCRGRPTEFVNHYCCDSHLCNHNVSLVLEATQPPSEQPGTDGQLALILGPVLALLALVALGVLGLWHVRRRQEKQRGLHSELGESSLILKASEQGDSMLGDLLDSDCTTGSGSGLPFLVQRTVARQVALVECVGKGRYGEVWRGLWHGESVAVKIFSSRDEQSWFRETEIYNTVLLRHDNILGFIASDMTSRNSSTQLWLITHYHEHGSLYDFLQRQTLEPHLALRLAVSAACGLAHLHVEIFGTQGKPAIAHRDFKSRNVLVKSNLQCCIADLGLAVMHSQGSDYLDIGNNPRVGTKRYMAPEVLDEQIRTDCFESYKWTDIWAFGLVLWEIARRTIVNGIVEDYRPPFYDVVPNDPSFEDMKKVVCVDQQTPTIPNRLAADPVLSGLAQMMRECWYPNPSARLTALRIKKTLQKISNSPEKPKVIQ
ALK1 / BMPRII receptor pair (BMPR Type I receptor ALK1 and BMPR Type II receptor BMPRII) on cells, sequence (Q13873 27-1038 limits assumed, chain 2 of 2): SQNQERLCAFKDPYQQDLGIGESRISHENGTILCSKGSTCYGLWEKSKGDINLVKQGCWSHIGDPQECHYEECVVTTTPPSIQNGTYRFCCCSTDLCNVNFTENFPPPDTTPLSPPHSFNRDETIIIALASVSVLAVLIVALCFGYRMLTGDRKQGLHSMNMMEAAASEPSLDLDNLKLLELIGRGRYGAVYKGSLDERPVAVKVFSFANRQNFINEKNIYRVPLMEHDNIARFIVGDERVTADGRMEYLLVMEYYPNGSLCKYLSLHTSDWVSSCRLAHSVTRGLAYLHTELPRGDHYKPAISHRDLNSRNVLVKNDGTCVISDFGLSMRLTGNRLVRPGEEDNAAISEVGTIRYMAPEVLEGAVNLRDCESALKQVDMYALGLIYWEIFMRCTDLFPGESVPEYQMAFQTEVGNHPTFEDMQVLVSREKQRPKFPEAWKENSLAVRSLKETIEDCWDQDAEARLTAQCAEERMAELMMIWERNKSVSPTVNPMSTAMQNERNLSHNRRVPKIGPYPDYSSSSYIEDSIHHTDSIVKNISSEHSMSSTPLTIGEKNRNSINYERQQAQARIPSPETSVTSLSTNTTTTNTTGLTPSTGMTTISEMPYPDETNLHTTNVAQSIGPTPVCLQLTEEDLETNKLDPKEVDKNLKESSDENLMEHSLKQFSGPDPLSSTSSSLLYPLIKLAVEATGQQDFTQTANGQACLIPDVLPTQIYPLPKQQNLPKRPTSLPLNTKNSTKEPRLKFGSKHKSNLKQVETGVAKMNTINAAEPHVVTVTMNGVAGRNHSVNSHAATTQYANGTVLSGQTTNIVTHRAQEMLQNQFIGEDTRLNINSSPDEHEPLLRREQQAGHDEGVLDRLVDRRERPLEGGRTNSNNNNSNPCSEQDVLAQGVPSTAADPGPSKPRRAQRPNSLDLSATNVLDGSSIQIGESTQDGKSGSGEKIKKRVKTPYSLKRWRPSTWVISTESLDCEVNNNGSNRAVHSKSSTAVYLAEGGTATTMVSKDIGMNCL

B1: DGL218 (bispecific antibody)
chain 1: QVQLVESGGGLVQAGGSLRLSCAASGRTFSKHAMGWFRQAPGKEREFVAAIDWSGGSTYYADSVKGRFTISRDNAKNTVYLQMDSLKPEDTAVYYCAADSYTDYAQLWLPELESEYDYWGQGTLVTVSSCPPCPAPEAAGAPSVFLFPPKPKDTLMISRTPEVTCVVVDVSHEDPEVKFNWYVDGVEVHNAKTKPREEQYNSTYRVVSVLTVLHQDWLNGKEYKCKVSNKALPAPIEKTISKAKGQPREPQVCTLPPSRDELTKNQVSLSCAVKGFYPSDIAVEWESNGQPENNYKTTPPVLDSDGSFFLVSKLTVDKSRWQQGNVFSCSVMHEALHNHYTQKSLSLSPGWSHPQFEK
chain 2: not shown
For B1, the “HEK-Blue assay, % human IL18” value in assay [1] came out at 44 % human IL18.

B2: DGL222 (bispecific antibody)
chain 1: QVQLVESGGGLVQAGGSLRLSCAASGRTFSKHAMGWFRQAPGKEREFVAAIDWSGGSTYYADSVKGRFTISRDNAKNTVYLQMDSLKPEDTAVYYCAADSYTDYAQLWLPELESEYDYWGQGTLVTVSSEKSYGPPCPPCPAPEAAGAPSVFLFPPKPKDTLMISRTPEVTCVVVDVSHEDPEVKFNWYVDGVEVHNAKTKPREEQYNSTYRVVSVLTVLHQDWLNGKEYKCKVSNKALPAPIEKTISKAKGQPREPQVCTLPPSRDELTKNQVSLSCAVKGFYPSDIAVEWESNGQPENNYKTTPPVLDSDGSFFLVSKLTVDKSRWQQGNVFSCSVMHEALHNHYTQKSLSLSPGWSHPQFEK
chain 2: not shown
Regarding B2, in assay [1], the “HEK-Blue assay, % human IL18” value turned out to be 44 % human IL18.

B3: DGL217 (bispecific antibody)
chain 1: QVQLVESGGGLVQAGGSLRLSCAASGRTFSKHAMGWFRQAPGKEREFVAAIDWSGGSTYYADSVKGRFTISRDNAKNTVYLQMDSLKPEDTAVYYCAADSYTDYAQLWLPELESEYDYWGQGTLVTVSSDKTHTCPPCPAPEAAGAPSVFLFPPKPKDTLMISRTPEVTCVVVDVSHEDPEVKFNWYVDGVEVHNAKTKPREEQYNSTYRVVSVLTVLHQDWLNGKEYKCKVSNKALPAPIEKTISKAKGQPREPQVCTLPPSRDELTKNQVSLSCAVKGFYPSDIAVEWESNGQPENNYKTTPPVLDSDGSFFLVSKLTVDKSRWQQGNVFSCSVMHEALHNHYTQKSLSLSPGWSHPQFEK
chain 2: QLQLVESGGGLVQAGGSLRLSCAASRSITFSHNVMGWYRQAPGKQRELVASIGSGGSTNYVDSVKGRATISRDNAKKTVYLQMNSLKPEDTAVYYCGVVVGVYRGSLGQGTLVTVSSEKSYGPPCPPCPAPEAAGAPSVFLFPPKPKDTLMISRTPEVTCVVVDVSHEDPEVKFNWYVDGVEVHNAKTKPREEQYNSTYRVVSVLTVLHQDWLNGKEYKCKVSNKALPAPIEKTISKAKGQPREPQVYTLPPCRDELTKNQVSLWCLVKGFYPSDIAVEWESNGQPENNYKTTPPVLDSDGSFFLYSKLTVDKSRWQQGNVFSCSVMHEALHNHYTQKSLSLSPGEPEA
Consider B3, for which the “HEK-Blue assay, % human IL18” value in assay [2] was 45 % human IL18.

B4: DGL945 (bispecific antibody, human IgG1, lambda)
heavy: EVQLLESGGGLVQPGGSLRLSCAASGFTFSDYYMTWIRQAPGKGLEWVSSISGGSTYYADSRKGRFTISRDNSENTLYLQMNSLRAEDTAVYYCARDFGVAGWFGQYGMDVWGQGTLVTVSSPLAPEVQLLESGGGLVQPGGSLRLSCAASGFTFSSYAMSWVRQAPGKGLEWVANINQDGSEKNYVDSMRGRFTISRDNSKNTLYLQMNSLRAEDTAVYYCAREFDYWGQGTLVTVSSASTKGPSVFPLAPSSKSTSGGTAALGCLVKDYFPEPVTVSWNSGALTSGVHTFPAVLQSSGLYSLSSVVTVPSSSLGTQTYICNVNHKPSNTKVDKKVEPKSCDKTHTCPPCPAPEAAGAPSVFLFPPKPKDTLYITREPEVTCVVVDVSHEDPEVKFNWYVDGVEVHNAKTKPREEQYNSTYRVVSVLTVLHQDWLNGKEYKCKVSNKALPAPIEKTISKAKGQPREPQVYTLPPSRDELTKNQVSLTCLVKGFYPSDIAVEWESNGQPENNYKTTPPVLDSDGSFFLYSKLTVDKSRWQQGNVFSCSVMHEALHNHYTQKSLSLSPG
light: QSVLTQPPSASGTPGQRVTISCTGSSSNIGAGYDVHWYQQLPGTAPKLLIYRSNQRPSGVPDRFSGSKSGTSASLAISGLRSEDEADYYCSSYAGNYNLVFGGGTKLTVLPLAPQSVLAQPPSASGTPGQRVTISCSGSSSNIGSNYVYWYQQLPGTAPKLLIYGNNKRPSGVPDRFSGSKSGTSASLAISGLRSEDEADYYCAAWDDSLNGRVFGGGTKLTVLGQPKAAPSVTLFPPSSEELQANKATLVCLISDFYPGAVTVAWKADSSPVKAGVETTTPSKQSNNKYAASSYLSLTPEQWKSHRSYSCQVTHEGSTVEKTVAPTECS
In the case of B4, in assay [3], the “Agonist activity in DiscoverX assay, % Emax BMP9” value (“Agonist activity … % Emax BMP9” for short) worked out at 78 % Emax BMP9.

B5: DGL1146 (bispecific antibody, human IgG1, lambda)
heavy: B4 heavy with Y374M, T376S, E378T, M550L, N556S
light: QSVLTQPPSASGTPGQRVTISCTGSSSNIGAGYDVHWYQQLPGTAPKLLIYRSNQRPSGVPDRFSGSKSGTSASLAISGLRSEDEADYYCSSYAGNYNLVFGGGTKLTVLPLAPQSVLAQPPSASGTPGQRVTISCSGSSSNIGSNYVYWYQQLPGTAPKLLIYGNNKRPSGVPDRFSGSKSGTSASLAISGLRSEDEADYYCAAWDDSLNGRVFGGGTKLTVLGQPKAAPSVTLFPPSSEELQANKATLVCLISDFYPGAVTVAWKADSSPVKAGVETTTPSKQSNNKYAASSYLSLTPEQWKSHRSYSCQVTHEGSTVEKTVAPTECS
In the case of B5, in assay [3], the “Agonist activity … % Emax BMP9” value stood at 78 % Emax BMP9.

B6: DGL949 (bispecific antibody, human IgG1, lambda)
heavy: B4 heavy with T35N, R62V, Q106Y, A159W, N178K, Y228F
light: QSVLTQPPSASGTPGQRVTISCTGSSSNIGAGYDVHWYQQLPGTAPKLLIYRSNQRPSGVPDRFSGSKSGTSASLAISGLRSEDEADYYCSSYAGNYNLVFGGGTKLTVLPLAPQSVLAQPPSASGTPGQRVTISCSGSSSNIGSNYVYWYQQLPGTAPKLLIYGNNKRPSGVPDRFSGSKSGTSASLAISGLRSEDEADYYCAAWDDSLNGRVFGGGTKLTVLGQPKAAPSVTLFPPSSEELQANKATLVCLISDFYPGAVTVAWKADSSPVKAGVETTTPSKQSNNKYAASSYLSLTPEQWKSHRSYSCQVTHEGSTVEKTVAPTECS
With B6, in assay [3], the “Agonist activity … % Emax BMP9” value was 42 % Emax BMP9.

B7: DGL947 (bispecific antibody, human IgG1, lambda)
heavy: B4 heavy with T35N, R62V, Y107F, A159W, N185Y, F226Y
light: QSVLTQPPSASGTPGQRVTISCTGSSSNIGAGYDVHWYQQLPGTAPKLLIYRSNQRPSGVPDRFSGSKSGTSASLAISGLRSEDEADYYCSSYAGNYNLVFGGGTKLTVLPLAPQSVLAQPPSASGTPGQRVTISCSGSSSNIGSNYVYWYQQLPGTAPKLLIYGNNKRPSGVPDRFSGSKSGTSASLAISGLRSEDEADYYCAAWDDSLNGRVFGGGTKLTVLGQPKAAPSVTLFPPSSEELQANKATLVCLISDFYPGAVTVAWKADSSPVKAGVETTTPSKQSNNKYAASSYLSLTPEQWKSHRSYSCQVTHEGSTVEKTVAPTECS
For the molecule B7, the “Agonist activity … % Emax BMP9” value in assay [3] came out at 47 % Emax BMP9.

B8: DGL093 (bispecific antibody, IgG1)
chain 1: QVQLVESGGGLVQAGGSLRLSCAASGRTFSKHAMGWFRQAPGKEREFVAAIDWSGGSTYYADSVKGRFTISRDNAKNTVYLQMDSLKPEDTAVYYCAADSYTDYAQLWLPELESEYDYWGQGTQVTVSSDKTHTCPPCPAPEAAGGPSVFLFPPKPKDTLMISRTPEVTCVVVDVSHEDPEVKFNWYVDGVEVHNAKTKPREEQYNSTYRVVSVLTVLHQDWLNGKEYKCKVSNKALPAPIEKTISKAKGQPREPQVCTLPPSRDELTKNQVSLSCAVKGFYPSDIAVEWESNGQPENNYKTTPPVLDSDGSFFLVSKLTVDKSRWQQGNVFSCSVMHEALHNHYTQKSLSLSPG
chain 2: not shown
For the molecule B8, the “HEK-Blue assay, % hu-IL-18” value in assay [4] was 65 % of human IL18 activity.

B9: DGL219 (bispecific antibody)
chain 1: QVQLVESGGGLVQAGGSLRLSCAASGRTFSKHAMGWFRQAPGKEREFVAAIDWSGGSTYYADSVKGRFTISRDNAKNTVYLQMDSLKPEDTAVYYCAADSYTDYAQLWLPELESEYDYWGQGTLVTVSSPLAPDKTHTCPPCPAPEAAGAPSVFLFPPKPKDTLMISRTPEVTCVVVDVSHEDPEVKFNWYVDGVEVHNAKTKPREEQYNSTYRVVSVLTVLHQDWLNGKEYKCKVSNKALPAPIEKTISKAKGQPREPQVCTLPPSRDELTKNQVSLSCAVKGFYPSDIAVEWESNGQPENNYKTTPPVLDSDGSFFLVSKLTVDKSRWQQGNVFSCSVMHEALHNHYTQKSLSLSPGWSHPQFEK
chain 2: not shown
For B9, in assay [1], the “HEK-Blue assay, % human IL18” value is 35 % human IL18.

B10: DGL221 (bispecific antibody)
chain 1: QVQLVESGGGLVQAGGSLRLSCAASGRTFSKHAMGWFRQAPGKEREFVAAIDWSGGSTYYADSVKGRFTISRDNAKNTVYLQMDSLKPEDTAVYYCAADSYTDYAQLWLPELESEYDYWGQGTLVTVSSGGGGSGGGGSGGGGSGGGGSCPPCPAPEAAGAPSVFLFPPKPKDTLMISRTPEVTCVVVDVSHEDPEVKFNWYVDGVEVHNAKTKPREEQYNSTYRVVSVLTVLHQDWLNGKEYKCKVSNKALPAPIEKTISKAKGQPREPQVCTLPPSRDELTKNQVSLSCAVKGFYPSDIAVEWESNGQPENNYKTTPPVLDSDGSFFLVSKLTVDKSRWQQGNVFSCSVMHEALHNHYTQKSLSLSPGWSHPQFEK
chain 2: not shown
Take B10: the “HEK-Blue assay, % human IL18” value in assay [1] was 19 % human IL18.

B11: DGL220 (bispecific antibody)
chain 1: QVQLVESGGGLVQAGGSLRLSCAASGRTFSKHAMGWFRQAPGKEREFVAAIDWSGGSTYYADSVKGRFTISRDNAKNTVYLQMDSLKPEDTAVYYCAADSYTDYAQLWLPELESEYDYWGQGTLVTVSSPLAPCPPCPAPEAAGAPSVFLFPPKPKDTLMISRTPEVTCVVVDVSHEDPEVKFNWYVDGVEVHNAKTKPREEQYNSTYRVVSVLTVLHQDWLNGKEYKCKVSNKALPAPIEKTISKAKGQPREPQVCTLPPSRDELTKNQVSLSCAVKGFYPSDIAVEWESNGQPENNYKTTPPVLDSDGSFFLVSKLTVDKSRWQQGNVFSCSVMHEALHNHYTQKSLSLSPGWSHPQFEK
chain 2: not shown
Consider B11, for which, in assay [1], the “HEK-Blue assay, % human IL18” value was 53 % human IL18.

For the origin of these results see patent publication US20240383990A1 (DIAGONAL THERAPEUTICS, published 2024).
